Measured values from patent US20080081047A1 (published 2008).
Changes are numbered by the printed parent chain.

B1: F26G19 (antibody, V domains shown)
VH: EVQLEESGTVLARPGASVKMSCKASGYTFTTYRMHWIKQRPGQGLEWIGAIYPGNSDTTYNQKFKDKAKLTAVTSTSSAYMELSSLTNEDSAVYFCTREGIPQLLRTLDYWGQGTSVTVSS
VL: DILMTQSPSSLSASLGERVSLTCRASQEISGYLSWLQEKPDGTIKRLIYAASTLDSGVPKRFSGSRSGSDYSLTISSLESEDFADYYCLQYVSYPWTFGGGTKLEIKR
B2: F26G18 (antibody, V domains shown)
VH: LVQLEESGTVLPRPGASVKMSCKASGYTFTSYWMHWVKQRPGQGLEWIGAIYPGNSDTNYNQKFKGRATLTAVTSTSTASMELSSLTNEDSAVYYCTRDGYGSLYYYAMDFWGQGTSVTVSS
VL: ELVMTQSPSSLSASLGDRVTISCRASQDISNYLNWYQQKPDGTVKLLIYYTSRLHAGVPSRFSGSGSGTDYSLTISNLEQEDIATYFCQQGYTLPYTFGGGTKLEIKR
B3: F26G6 (antibody, V domains shown)
VH: QVQLQQPGAELVKPGASVKVSCKASGYTFTNYWIHWVKQRPGQGLEWIGEINPGNGRTNYNGNFMNKATLTVDKSSNTAYMQLSSLTSEDSAVYHCARLDYWGQGTTLTVSS
VL: ELVMTQSPASLSVATGKKVTIRCISSTDIDDDMNWYQQKAGKPPKLLISEGNIFSPGVPSRFSSSGNGTDFVFTVENTLSEDVADNYCLQSDNMPFTFGSGTKLGIKR
B4: F26G8 (antibody, V domains shown)
VH: VQLLESGAELVKPGASVKVSCKASGYTFTSYWIHWVKQRPGQGLEWIGEINPSNGRTNYNGNFESKATLTVDKSSNTAYMHLSSLTYEDSAVYHCTRLDYWGQGTTLTVSS
VL: B3 VL with A14I, S26N, M33L, Y36S, Q38L, K42E, V75I, D85N, L89F, G105E

Assays:
SARS-HCoV spike protein [1] = biological target: T1, SARS-HCoV spike protein (SARS-coronavirus (Tor-3 strain), UniProt P59594 14-1255); experiment: ELISA, OD on native virus against OD on heat-denatured virus
SARS-HCoV spike protein [2] = biological target: T1, SARS-HCoV spike protein; experiment: ELISA, native gradient purified virus coated at 32 ng/well
SARS-HCoV spike protein [3] = biological target: T1, SARS-HCoV spike protein; experiment: ELISA, virus heated 100 C 10 min, coated at 32 ng/well

Binder | O.D. Reduction, Fold (SARS-HCoV spike protein [1]) | O.D. Reduction, Percent (SARS-HCoV spike protein [1]) | ELISA OD 405 nm, Viral Lysate (native) (SARS-HCoV spike protein [2]) | ELISA OD 405 nm, Denatured Lysate (SARS-HCoV spike protein [3])
B1 | 6 fold | 83% | 1.5 OD 405 nm | 0.253 OD 405 nm
B2 | 3.6 fold | 72% | 1.81 OD 405 nm | 0.501 OD 405 nm
B3 | 2.7 fold | 62% | 1.6 OD 405 nm | 0.6 OD 405 nm
B4 | 2.8 fold | 29% | 1.41 OD 405 nm | 0.497 OD 405 nm
